Measured values: paper PMC4434771

Tests used:
[1] = molecular target: human neonatal Fc receptor (FcRn), heterodimer of alpha-FcRn and beta2 microglobulin (human) (UniProt P55899); assay: FcRn affinity chromatography
[2] = molecular target: human neonatal Fc receptor (FcRn), heterodimer of alpha-FcRn and beta2 microglobulin (human) (UniProt P55899); assay: SPR

Row | Substance | FcRn column retention time [1] [min] | Rel. KD (KD normalised to the KD of ustekinumab) [2] | FcRn column elution pH [1] [pH]
1 | mAb 1 (ustekinumab Fv + briakinumab constant domains) (antibody) | 84.3 | 1 | 
2 | mAb 5 (ustekinumab CDRs on briakinumab) (antibody) | 85.1 | 0.9 | 
3 | briakinumab (antibody) | 93.7 |  | 7.9

Continued, values first:

Row | FcRn column retention time [1] [min] | Rel. KD (KD normalised to the KD of ustekinumab) [2] | FcRn column elution pH [1] [pH] | Substance
4 | 85.2 |  |  | IdeS-cleaved Fc region of ustekinumab (domain or fragment)
5 | 92.4 |  |  | mAb 3 (ustekinumab HC + briakinumab LC) (from UniProt P01857 2-107) (antibody)
6 | 85.7 |  |  | IdeS-cleaved Fc region of briakinumab (domain or fragment)
